Assay results from patent publication US20160177307.

Tested on: T1, VEGF-121 (Homo sapiens), P15692-9
T1 sequence: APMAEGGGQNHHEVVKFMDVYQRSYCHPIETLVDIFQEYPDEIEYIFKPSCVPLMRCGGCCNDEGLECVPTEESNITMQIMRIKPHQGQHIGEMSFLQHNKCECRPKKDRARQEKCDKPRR
Experiment: filter

## AGCCGTTCAAGTGCTTGTAGGATTTAAATGGA [4867-31_94]
P=Nap-dU, 2'-OMe G30
  Kd: 210 pM

## CCTCCATCAGCCGTTCAAGTGCTTGTAGGATTTAAATGGAATTGGAGGA [4867-15_25]
P=Nap-dU, C3 spacer at 2
  Kd: 130 pM

## CCCTCCATCAGCCGTTCAGTGCTTGTAGGATTTAAATGGAATTGGAGGA [4867-15_42]
P=Nap-dU, C3 spacer at 19
  Kd: 31000 pM

## CCCTCATCAGCCGTTCAAGTGCTTGTAGGATTTAAATGGAATTGGAGGA [4867-15_28]
P=Nap-dU, C3 spacer at 5
  Kd: 340 pM

## AGCCGTTAAGTGCTTGTAGGATTTAAATGGA [4867-31_101]
P=Nap-dU
  Kd: 5890 pM

## AGCCGTTCAAGTGCTTGTAGGATTTAAATGGA [4867-31_76]
2'-OMe-U at 12 in place of NapdU, other P are NapdU, 2'-OMe-U for NapdU
  Kd: 22900 pM

## CCCTCCACAGCCGTTCAAGTGCTTGTAGGATTTAAATGGAATTGGAGGA [4867-15_31]
P=Nap-dU, C3 spacer at 8
  Kd: 95 pM

## CCGTTCAAGTGCTTGTAGGATTTAAATGG [4867-31_428]
As 4867-31_192, PS 3' of 26, 3' inverted dT
  Kd: 8.4 pM

## CCCTCCATCAGCCGTTCAAGTGCTTGTAGGATTTAAATGGAATTGAGGA [4867-15_68]
P=Nap-dU, C3 spacer at 45
  Kd: 320 pM

## CCGTTCAAGTGCTTGTAGGATTTAAATGG [4867-31_143]
NapdU at 4,5,10,13,14,16,21,22,23,27, rest DNA, SB18T, 37 C, Table 13 gives 0.14 nM
  Kd: 170 pM

## CCCTCCATCAGCCGTTCAATGCTTGTAGGATTTAAATGGAATTGGAGGA [4867-15_43]
P=Nap-dU, C3 spacer at 20
  Kd: 9200 pM

## CCGTTCAAGTGCTTGTAGGATTTAAATGGCGACAGCATGTATGCACATCT [5169-4_94]
VEGF-5Heg-PDGF, NapdU, 2'-OMe
  Kd: 66 pM

## CCCTCCATAGCCGTTCAAGTGCTTGTAGGATTTAAATGGAATTGGAGGA [4867-15_32]
P=Nap-dU, C3 spacer at 9
  Kd: 79 pM

## CCGTTCAAGTGCTTTTAGGATTTAAATGGA [4867-31_150]
P=Nap-dU
  Kd: 240 pM

## CCTCCATCAGCCGTTCAAGTGCTTGTAGGATTTAAATGGAATTGGAGGA [4867-15_24]
P=Nap-dU, C3 spacer at 1
  Kd: 110 pM

## AGCCGTTCAAGTGCTTGTAGGATTTAAATGGA [4867-31_77]
P=Nap-dU, 2'-OMe G13
  Kd: 6640 pM

## CCGTTCAAGTGCTTTAGGATTTAAATGG [4867-31_188]
NapdU at P, C3 spacer 15, 2'-OMe 9,17,18,28,29 as printed
  Kd: 38 pM

## CCGTTCAAGTGCTTTAGATTTAAATGG [4867-31_184]
NapdU at P, C3 spacer 15,18, 2'-OMe 9,17
  Kd: 84 pM

## CCGTTCAAGTGCTTGTAAGATTTAAATGGA [4867-31_151]
P=Nap-dU
  Kd: 160 pM

## CCCTCCATCAGCCGTTCAAGTGCTTGTAGATTTAAATGGAATTGGAGGA [4867-15_53]
P=Nap-dU, C3 spacer at 30
  Kd: 23000 pM

## AGCCGTTCAAGTGCTTGTAGGATTTAAATGGA [4867-31_68]
P=Nap-dU, 2'-OMe C4 (inferred, superscript lost)
  Kd: 7550 pM

## AGCCGTTCAAGTGCTTGTAGGATTTAAATGGA [4867-31_73]
P=Nap-dU, 2'-OMe A9
  Kd: 5990 pM

## CCCTCCTCAGCCGTTCAAGTGCTTGTAGGATTTAAATGGAATTGGAGGA [4867-15_30]
P=Nap-dU, C3 spacer at 7
  Kd: 110 pM

## CCGTTCAAGTGCTTTAGGATTTAAATGG [4867-31_189]
NapdU at P, C3 spacer 15, 2'-OMe 9,17,18,25,28,29 as printed
  Kd: 900 pM

## AGCCGTTCAAGTGCTTGTAGGATTTAAATGGA [4867-31_96]
P=Nap-dU, 2'-OMe A32
  Kd: 130 pM

## CCCTCCATCAGCCGTTCAAGTGCTTGTAGGATTTAAATGGAATGGAGGA [4867-15_66]
P=Nap-dU, C3 spacer at 43
  Kd: 110 pM

## CCGTTCAAGTGCTTGTAGGATTTAAATGG [4867-31_479]
As 4867-31_192, 2'-OMe 1, PS 24
  Kd: 26 pM

## AGCCGTTCAAGTGCTTGTAGATTTAAATGGA [4867-31_99]
P=Nap-dU, C3 spacer at 20
  Kd: 220 pM

## CCGTTCAAGTGCTTCTAGGATTTAAATGGA [4867-31_149]
P=Nap-dU
  Kd: 270 pM

## CCGTTCAAGTGCTTGTAGGATTTAAATGG [4867-31_420]
As 4867-31_192, PS 3' of 14, 3' inverted dT
  Kd: 18 pM

## CCGTTCAAGTGCTTGTAGGATTTAAATGG [4867-31_445]
As 4867-31_192, PS 3' of 29, 3' inverted dT
  Kd: 10 pM

## CCGTTCAAGTGCTTGTAGGATTTAAATGG [4867-31_155]
NapdU at P, 2'-OMe 5
  Kd: 3300 pM

## CCCTCCATCAGCCGTTCAAGTGCTTGTAGGATTTAAATGGATTGGAGGA [4867-15_65]
P=Nap-dU, C3 spacer at 42
  Kd: 130 pM

## CCCCCATCAGCCGTTCAAGTGCTTGTAGGATTTAAATGGAATTGGAGGA [4867-15_27]
P=Nap-dU, C3 spacer at 4
  Kd: 400 pM

## CCGTTCAAGTGCTTGTAGGATTTAAATGG [4867-31_476]
As 4867-31_192, 2'-OMe 1, PS 26, printed 2.1-11
  Kd: 21 pM

## CCCTCCATCAGCCGTTCAAGTGCTTGTAGGATTTAAATGAATTGGAGGA [4867-15_63]
P=Nap-dU, C3 spacer at 40
  Kd: 15000 pM
